Patent publication US20060189528A1 (EVOGENIX, published 2006)
Numbering of substitutions follows the chain as printed. Names and notes keep the numbering of the source.

B1: OVP I115A (Fc fusion)
chain: ETFPPKYLHYDEETSHQLLCDKCPPGTYLKQHCTAKWKTVCAPCPDHYYTDSWHTSDECLYCSPVCKELQYVKQECNRTHNRVCECKEGRYLEAEFCLKHRSCPPGFGVVQAGTPERNTVCKRCPDGFFSNETSSKAPCRKHTNCSVFGLLLTQKGNATHDNICSGNSESTQK
notes: Tested as C-terminal Fc-linked dimer with FLAG tag, from HEK 293 EBNA cells; signal peptide 1-21 processed; not shown: human Fc domain of vector pAPEX-3.Fc; C-terminal FLAG tag
B2: OVP I115V (Fc fusion)
chain: B1 chain with A94V
notes: as for B1
B3: OVP I115Y (Fc fusion)
chain: B1 chain with A94Y
notes: as for B1
B4: OVP I115G (Fc fusion)
chain: B1 chain with A94G
notes: as for B1
B5: OVP I115T, K51R, R111H (Fc fusion)
chain: B1 chain with K30R, R90H, A94T
notes: as for B1
B6: OVP I115M, L40S (Fc fusion)
chain: B1 chain with L19S, A94M
notes: Tested as C-terminal Fc-linked dimer with FLAG tag, from HEK 293 EBNA cells; signal peptide 1-21 processed; also called R23; not shown: human Fc domain of vector pAPEX-3.Fc; C-terminal FLAG tag
B7: OVP I115D (Fc fusion)
chain: B1 chain with A94D
notes: as for B1
B8: OVP I115M, F128L (Fc fusion)
chain: B1 chain with A94M, F107L
notes: Tested as C-terminal Fc-linked dimer with FLAG tag, from HEK 293 EBNA cells; signal peptide 1-21 processed; also called I115M plus: F128L; not shown: human Fc domain of vector pAPEX-3.Fc; C-terminal FLAG tag
B9: OVP I115M, R122Q (Fc fusion)
chain: B1 chain with A94M, R101Q
notes: Tested as C-terminal Fc-linked dimer with FLAG tag, from HEK 293 EBNA cells; signal peptide 1-21 processed; also called I115M plus: R122Q; not shown: human Fc domain of vector pAPEX-3.Fc; C-terminal FLAG tag
B10: OVP I115M, F128A (Fc fusion)
chain: B1 chain with A94M, F107A
notes: Tested as C-terminal Fc-linked dimer with FLAG tag, from HEK 293 EBNA cells; signal peptide 1-21 processed; also called I115M plus: F128A; not shown: human Fc domain of vector pAPEX-3.Fc; C-terminal FLAG tag
B11: OVP I115M (Fc fusion)
chain: B1 chain with A94M
notes: Ribosome display selected; tested as C-terminal Fc-linked dimer with FLAG tag, from HEK 293 EBNA cells; signal peptide 1-21 processed; also called 1R17; not shown: human Fc domain of vector pAPEX-3.Fc; C-terminal FLAG tag
B12: OVP I115M, R122S (Fc fusion)
chain: B1 chain with A94M, R101S
notes: Tested as C-terminal Fc-linked dimer with FLAG tag, from HEK 293 EBNA cells; signal peptide 1-21 processed; also called I115M plus: R122S; not shown: human Fc domain of vector pAPEX-3.Fc; C-terminal FLAG tag
B13: OVP I115T, K51R, S167G (Fc fusion)
chain: B1 chain with K30R, A94T, S146G
notes: as for B1
B14: OVP N102D (Fc fusion)
chain: B1 chain with N81D, A94I
notes: as for B1
B15: OVP I115L (Fc fusion)
chain: B1 chain with A94L
notes: as for B1
B16: OVP I115M, R122G (Fc fusion)
chain: B1 chain with A94M, R101G
notes: Tested as C-terminal Fc-linked dimer with FLAG tag, from HEK 293 EBNA cells; signal peptide 1-21 processed; also called I115M plus: R122G; not shown: human Fc domain of vector pAPEX-3.Fc; C-terminal FLAG tag
B17: OVP I115M, F128S (Fc fusion)
chain: B1 chain with A94M, F107S
notes: Tested as C-terminal Fc-linked dimer with FLAG tag, from HEK 293 EBNA cells; signal peptide 1-21 processed; also called I115M plus: F128S; not shown: human Fc domain of vector pAPEX-3.Fc; C-terminal FLAG tag
B18: OVP I115K (Fc fusion)
chain: B1 chain with A94K
notes: as for B1
B19: OVP I115T, K51R (Fc fusion)
chain: B1 chain with K30R, A94T
notes: as for B1
B20: OVP I115M, R122E (Fc fusion)
chain: B1 chain with A94M, R101E
notes: Tested as C-terminal Fc-linked dimer with FLAG tag, from HEK 293 EBNA cells; signal peptide 1-21 processed; also called I115M plus: R122E; not shown: human Fc domain of vector pAPEX-3.Fc; C-terminal FLAG tag
B21: OVP I115W (Fc fusion)
chain: B1 chain with A94W
notes: as for B1
B22: OVP I115E (Fc fusion)
chain: B1 chain with A94E
notes: as for B1
B23: OVP I115S (Fc fusion)
chain: B1 chain with A94S
notes: as for B1
B24: OVP I115M, R122D (Fc fusion)
chain: B1 chain with A94M, R101D
notes: Tested as C-terminal Fc-linked dimer with FLAG tag, from HEK 293 EBNA cells; signal peptide 1-21 processed; also called I115M plus: R122D; not shown: human Fc domain of vector pAPEX-3.Fc; C-terminal FLAG tag
B25: OVP I115R (Fc fusion)
chain: B1 chain with A94R
notes: as for B1
B26: OVP I115M, R122N (Fc fusion)
chain: B1 chain with A94M, R101N
notes: Tested as C-terminal Fc-linked dimer with FLAG tag, from HEK 293 EBNA cells; signal peptide 1-21 processed; also called I115M plus: R122N; not shown: human Fc domain of vector pAPEX-3.Fc; C-terminal FLAG tag
B27: OVP I115M, N139D (Fc fusion)
chain: B1 chain with A94M, N118D
notes: as for B1
B28: OVP I115M, F128I (Fc fusion)
chain: B1 chain with A94M, F107I
notes: Tested as C-terminal Fc-linked dimer with FLAG tag, from HEK 293 EBNA cells; signal peptide 1-21 processed; also called I115M plus: F128I; not shown: human Fc domain of vector pAPEX-3.Fc; C-terminal FLAG tag
B29: OVP I115M, F128T (Fc fusion)
chain: B1 chain with A94M, F107T
notes: Tested as C-terminal Fc-linked dimer with FLAG tag, from HEK 293 EBNA cells; signal peptide 1-21 processed; also called I115M plus: F128T; not shown: human Fc domain of vector pAPEX-3.Fc; C-terminal FLAG tag
B30: OVP I115N (Fc fusion)
chain: B1 chain with A94N
notes: as for B1

These binders were tested against T1, RANKL (human, UniProt O14788 140-317, limits assumed) (assay: ELISA on coated RANKL, Fc-linked dimers; EC50 ratio to OPG(22-194).Fc wt; increase in binding (lower EC50)).
T1 construct: also called Rank ligand
T1 sequence (looked up): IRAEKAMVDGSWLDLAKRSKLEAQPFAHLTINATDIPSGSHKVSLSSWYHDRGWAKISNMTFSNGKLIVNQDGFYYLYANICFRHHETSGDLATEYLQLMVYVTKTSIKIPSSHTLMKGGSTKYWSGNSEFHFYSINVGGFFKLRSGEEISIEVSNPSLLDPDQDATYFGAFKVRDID
Experimental: (§1) Purified mammalian-expressed OVP proteins are tested for binding to RANKL and TRAIL by ELISA. Wells are coated with RANKL at 5 μg/mL or TRAIL at 10 μg/mL in PBS O/N at 4° C., rinsed with PBS, blocked with 0.5% casein in PBS at room temp for 2 h, then rinsed again with PBS. Concentrations of OVPs to be tested are normalised to around 10 nM and then 50 μL applied to the antigen-coated wells in serial doubling dilutions over 6-7 wells for 1 h. […] All washes in between binding incubations are 3 times in PBS/0.05% Tween, then 3 times with PBS. Detection of bound OVPs is achieved with incubation of 50 μL anti-FLAG at […] for 20 min then 50 μL goat anti-mouse-peroxidase conjugate (BioRad) at 1:1500 for 20 min. TMB is used as enzyme substrate and then binding signal is measured at A_{450 nm}.

Binder | RANKL fold change cf wt [fold]
B1 | 2.25
B2 | 1.5
B3 | 1.1
B4 | 2.1
B5 | 1.5
B6 | 1.1
B7 | 1.5
B8 | 1.2
B9 | 2.5
B10 | 1.2
B11 | 1.2
B12 | 1.5
B13 | 1.5
B14 | 1.1
B15 | 1.75

The binders below were run against T1, RANKL (assay: ELISA on coated RANKL, Fc-linked dimers; EC50 ratio to OPG(22-194).Fc wt; printed without parentheses).
Experimental: as §1

Binder | RANKL fold change cf wt [fold]
B16 | 1
B17 | 1

What follows are binders tested against T2, TRAIL (human, UniProt P50591 114-281) (assay: ELISA on coated TRAIL, Fc-linked dimer).
T2 construct: also called TNF-related apoptosis inducing ligand; recombinant human TRAIL (R&D Systems)
Experimental: as §1

T2 sequence (P50591 114-281 limits assumed): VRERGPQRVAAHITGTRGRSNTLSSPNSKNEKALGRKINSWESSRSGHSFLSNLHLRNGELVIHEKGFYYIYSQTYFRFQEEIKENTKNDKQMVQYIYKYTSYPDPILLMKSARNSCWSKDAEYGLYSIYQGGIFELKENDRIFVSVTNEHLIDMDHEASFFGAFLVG

Binder | binding result
B18 | no binding

The binders below were run against T2, TRAIL (assay: ELISA on coated TRAIL, Fc-linked dimers; EC50 ratio to OPG(22-194).Fc wt; printed in parentheses (reduction in binding, higher EC50)).
Experimental: as §1

Binder | TRAIL fold change cf wt [fold]
B19 | 0.8
B14 | 1

The binders below were run against T1, RANKL (assay: ELISA on coated RANKL, Fc-linked dimers; EC50 ratio to OPG(22-194).Fc wt; reduction in binding (higher EC50)).
Experimental: as §1

Binder | RANKL fold change cf wt [fold]
B20 | 1.2
B21 | 1.4
B22 | 2.25
B23 | 1.4
B24 | 6
B19 | 1.75
B25 | 2.3
B26 | 1.1
B27 | 1.75
B28 | 2.1
B29 | 3.3
B18 | 60
B30 | 1.1

Each binder was assayed against T2, TRAIL (assay: ELISA on coated TRAIL, Fc-linked dimers; EC50 ratio to OPG(22-194).Fc wt; reduction in binding (higher EC50)).
Experimental: as §1

Binder | TRAIL fold change cf wt [fold]
B1 | 2.5
B2 | 4
B3 | 3
B20 | > 250
B21 | 5
B22 | > 250
B23 | 3.1
B5 | 7.5
B24 | 23
B6 | > 250
B7 | > 125
B26 | > 250
B9 | 3
B10 | 2
B16 | 12.5
B27 | 60
B11 | 25
B12 | 3.5
B13 | 15
B29 | 7
B15 | 4.3
B17 | 50

The binders below were run against T2, TRAIL (assay: ELISA on coated TRAIL, Fc-linked dimers; EC50 ratio to OPG(22-194).Fc wt; reduction in binding (higher EC50); # by extrapolation).
Experimental: as §1

Binder | TRAIL fold change cf wt [fold]
B4 | > 125
B8 | 250
B25 | 50
B28 | 250
B30 | 390
